Measurements as given in US20210292396A1.
Residue numbers refer to the chain shown, from its start.

Columns and labels:
Assay in all cases: cell-based or functional assay
[1] = molecular target: Env of HIV isolate 00836-2.5 (clade C) (HIV)
[2] = molecular target: Env of HIV isolate 231965.c01 (clade D) (HIV)
[3] = molecular target: Env of HIV isolate 235-47 (clade AG) (HIV)
[4] = molecular target: Env of HIV isolate 242-14 (clade AG) (HIV)
[5] = molecular target: Env of HIV isolate 25710-2.43 (clade C) (HIV)
[6] = molecular target: Env of HIV isolate 25711-2.4 (clade C) (HIV)
[7] = molecular target: Env of HIV isolate 3365.v2.c20 (clade A) (HIV)
[8] = molecular target: Env of HIV isolate 3415.v1.c1 (clade A) (HIV)
[9] = molecular target: Env of HIV isolate 57128.vrc15 (clade D) (HIV)
[10] = molecular target: Env of HIV isolate 89.6.DG (clade B) (HIV)
[11] = molecular target: Env of HIV isolate 928-28 (clade AG) (HIV)
[12] = molecular target: Env of HIV isolate ADA.DG (clade B) (HIV)
[13] = molecular target: Env of HIV isolate BI369.9A (clade A) (HIV)
[14] = molecular target: Env of HIV isolate BR025.9 (clade C) (HIV)
[15] = molecular target: Env of HIV isolate BaL.26 (clade B) (HIV)
[16] = molecular target: Env of HIV isolate CE703010217.B6 (clade C) (HIV)
[17] = molecular target: Env of HIV isolate CH038.12 (clade BC) (HIV)
[18] = molecular target: Env of HIV isolate CH119.10 (clade BC) (HIV)
[19] = molecular target: Env of HIV isolate CNE19 (clade BC) (HIV)
[20] = molecular target: Env of HIV isolate CNE3 (clade AE) (HIV)
[21] = molecular target: Env of HIV isolate Ce1176.A3 (clade C) (HIV)
[22] = molecular target: Env of HIV isolate DU156.12 (clade C) (HIV)
[23] = molecular target: Env of HIV isolate NKU3006.ec1 (clade D) (HIV)
[24] = molecular target: Env of HIV isolate P1981.C5.3 (clade G) (HIV)
[25] = molecular target: Env of HIV isolate Q461.e2 (clade AD) (HIV)
[26] = molecular target: Env of HIV isolate RHPA.7 (clade B) (HIV)
[27] = molecular target: Env of HIV isolate T253-11 (clade AG) (HIV)
[28] = molecular target: Env of HIV isolate T255-34 (clade AG) (HIV)
[29] = molecular target: Env of HIV isolate T257-31 (clade AG) (HIV)
[30] = molecular target: Env of HIV isolate T280-5 (clade AG) (HIV)
[31] = molecular target: Env of HIV isolate TH023.6 (clade AE) (HIV)
[32] = molecular target: Env of HIV isolate ZM215.8 (clade C) (HIV)
Envelope of SVA.MLV = molecular target: Envelope of SVA.MLV
[33] = molecular target: HIV Env of isolate 0921.v2.c14 (HIV)
[34] = molecular target: HIV Env of isolate 25711-2.4 (HIV)
[35] = molecular target: HIV Env of isolate 3326.v4.c3 (HIV)
[36] = molecular target: HIV Env of isolate 3637.v5.c3 (HIV)
[37] = molecular target: HIV Env of isolate 6405.v4.c34 (HIV)
[38] = molecular target: HIV Env of isolate A07412M1.vrc12 (HIV)
[39] = molecular target: HIV Env of isolate CNE15 (HIV)
[40] = molecular target: HIV Env of isolate CNE21 (HIV)
[41] = molecular target: HIV Env of isolate CNE31 (HIV)
[42] = molecular target: HIV Env of isolate CNE53 (HIV)
[43] = molecular target: HIV Env of isolate CNE58 (HIV)
[44] = molecular target: HIV Env of isolate Ce1176.A3 (HIV)
[45] = molecular target: HIV Env of isolate DU123.06 (HIV)
[46] = molecular target: HIV Env of isolate P0402.c2.11 (HIV)
[47] = molecular target: HIV Env of isolate X1193.c1 (HIV)
[48] = molecular target: HIV Env of isolate X2088.c9 (HIV)
[49] = molecular target: HIV Env of isolate ZM106.9 (HIV)

B1: ePGT121.18.17 (ePGT121.18.H17 VH and ePGT121.17.L1 VL) (antibody, V domains shown)
VH: QMQLQESGPGLVKPGETLSLTCSVSGASISSSYWSWLRETPGKGLEWIGYTHHSGDTNYAPSLKSRVTIGLDPSKNQVSLSLTSVTAADTAVYYCARTLHGRRIYGVVAFNEYYTYFYWPTWGKGTQVTVSS
VL: SDISVAPGETVRITCGGESIGSRAVQWYQHRPGQAPRLIIYNNQDRPPGIPERFSGSPDIDFGTTATLTISNVEAGDEATYYCHIWDSRRPTNWELGPGTTLTVL
[1]
  IC50, pseudovirus neutralization: 48900 ng/mL
[2]
  IC50, pseudovirus neutralization: > 50000 ng/mL
[3]
  IC50, pseudovirus neutralization: 22 ng/mL
[4]
  IC50, pseudovirus neutralization: > 50000 ng/mL
[5]
  IC50, pseudovirus neutralization: 8 ng/mL
[6]
  IC50, pseudovirus neutralization: 6 ng/mL
[7]
  IC50, pseudovirus neutralization: 7 ng/mL
[8]
  IC50, pseudovirus neutralization: 62 ng/mL
[9]
  IC50, pseudovirus neutralization: 12 ng/mL
[10]
  IC50, pseudovirus neutralization: 4 ng/mL
[11]
  IC50, pseudovirus neutralization: 462 ng/mL
[12]
  IC50, pseudovirus neutralization: 5 ng/mL
[13]
  IC50, pseudovirus neutralization: 4 ng/mL
[14]
  IC50, pseudovirus neutralization: 3 ng/mL
[15]
  IC50, pseudovirus neutralization: 4 ng/mL
[16]
  IC50, pseudovirus neutralization: 5 ng/mL
[17]
  IC50, pseudovirus neutralization: 2 ng/mL
[18]
  IC50, pseudovirus neutralization: 13 ng/mL
[19]
  IC50, pseudovirus neutralization: 3 ng/mL
[20]
  IC50, pseudovirus neutralization: > 50000 ng/mL
[21]
  IC50, pseudovirus neutralization: 8 ng/mL
[22]
  IC50, pseudovirus neutralization: 3 ng/mL
[23]
  IC50, pseudovirus neutralization: > 50000 ng/mL
[24]
  IC50, pseudovirus neutralization: 2 ng/mL
[25]
  IC50, pseudovirus neutralization: > 50000 ng/mL
[26]
  IC50, pseudovirus neutralization: 4 ng/mL
[27]
  IC50, pseudovirus neutralization: 25 ng/mL
[28]
  IC50, pseudovirus neutralization: 32 ng/mL
[29]
  IC50, pseudovirus neutralization: > 50000 ng/mL
[30]
  IC50, pseudovirus neutralization: 6 ng/mL
[31]
  IC50, pseudovirus neutralization: > 50000 ng/mL
[32]
  IC50, pseudovirus neutralization: 16 ng/mL
Envelope of SVA.MLV
  IC80, pseudovirus neutralization: > 50000 ng/mL
[33]
  IC80, pseudovirus neutralization: 3480 ng/mL
[34]
  IC80, pseudovirus neutralization: 17 ng/mL
[35]
  IC80, pseudovirus neutralization: 32000 ng/mL
[36]
  IC80, pseudovirus neutralization: > 50000 ng/mL
[37]
  IC80, pseudovirus neutralization: 12 ng/mL
[38]
  IC80, pseudovirus neutralization: 11 ng/mL
[39]
  IC80, pseudovirus neutralization: > 50000 ng/mL
[40]
  IC80, pseudovirus neutralization: 5 ng/mL
[41]
  IC80, pseudovirus neutralization: 250 ng/mL
[42]
  IC80, pseudovirus neutralization: 19 ng/mL
[43]
  IC80, pseudovirus neutralization: 195 ng/mL
[44]
  IC80, pseudovirus neutralization: 17 ng/mL
[45]
  IC80, pseudovirus neutralization: 13 ng/mL
[46]
  IC80, pseudovirus neutralization: 9 ng/mL
[47]
  IC80, pseudovirus neutralization: 13 ng/mL
[48]
  IC80, pseudovirus neutralization: 17 ng/mL
[49]
  IC80, pseudovirus neutralization: 8 ng/mL

B2: ePGT121.15 (ePGT121.15.H6 VH and ePGT121.15.L1 VL) (antibody, V domains shown)
VH: B1 VH with T68H, I69L, D72H, Y113F, Y114F, P120E, T121V
VL: B1 VL with T14S, P32A, R37K, S71T, E95V, L96F, P98G
[1]
  IC50, pseudovirus neutralization: 2250 ng/mL
[2]
  IC50, pseudovirus neutralization: 12500 ng/mL
[3]
  IC50, pseudovirus neutralization: 9 ng/mL
[4]
  IC50, pseudovirus neutralization: 42800 ng/mL
[5]
  IC50, pseudovirus neutralization: 6 ng/mL
[6]
  IC50, pseudovirus neutralization: 4 ng/mL
[7]
  IC50, pseudovirus neutralization: 6 ng/mL
[8]
  IC50, pseudovirus neutralization: 17 ng/mL
[9]
  IC50, pseudovirus neutralization: 7 ng/mL
[10]
  IC50, pseudovirus neutralization: 2 ng/mL
[11]
  IC50, pseudovirus neutralization: 161 ng/mL
[12]
  IC50, pseudovirus neutralization: 5 ng/mL
[13]
  IC50, pseudovirus neutralization: 2 ng/mL
[14]
  IC50, pseudovirus neutralization: 2 ng/mL
[15]
  IC50, pseudovirus neutralization: 3 ng/mL
[16]
  IC50, pseudovirus neutralization: 4 ng/mL
[17]
  IC50, pseudovirus neutralization: 1 ng/mL
[18]
  IC50, pseudovirus neutralization: 5 ng/mL
[19]
  IC50, pseudovirus neutralization: 4 ng/mL
[20]
  IC50, pseudovirus neutralization: > 50000 ng/mL
[21]
  IC50, pseudovirus neutralization: 3 ng/mL
[22]
  IC50, pseudovirus neutralization: 2 ng/mL
[23]
  IC50, pseudovirus neutralization: > 50000 ng/mL
[24]
  IC50, pseudovirus neutralization: 2 ng/mL
[25]
  IC50, pseudovirus neutralization: > 50000 ng/mL
[26]
  IC50, pseudovirus neutralization: 3 ng/mL
[27]
  IC50, pseudovirus neutralization: 9 ng/mL
[28]
  IC50, pseudovirus neutralization: 45 ng/mL
[29]
  IC50, pseudovirus neutralization: > 50000 ng/mL
[30]
  IC50, pseudovirus neutralization: 4 ng/mL
[31]
  IC50, pseudovirus neutralization: > 50000 ng/mL
[32]
  IC50, pseudovirus neutralization: 17 ng/mL
Envelope of SVA.MLV
  IC80, pseudovirus neutralization: > 50000 ng/mL
[33]
  IC80, pseudovirus neutralization: 5710 ng/mL
[34]
  IC80, pseudovirus neutralization: 8 ng/mL
[35]
  IC80, pseudovirus neutralization: 5050 ng/mL
[36]
  IC80, pseudovirus neutralization: > 50000 ng/mL
[37]
  IC80, pseudovirus neutralization: 9 ng/mL
[38]
  IC80, pseudovirus neutralization: 12 ng/mL
[39]
  IC80, pseudovirus neutralization: > 50000 ng/mL
[40]
  IC80, pseudovirus neutralization: 4 ng/mL
[41]
  IC80, pseudovirus neutralization: 147 ng/mL
[42]
  IC80, pseudovirus neutralization: 15 ng/mL
[43]
  IC80, pseudovirus neutralization: 75 ng/mL
[44]
  IC80, pseudovirus neutralization: 10 ng/mL
[45]
  IC80, pseudovirus neutralization: 8 ng/mL
[46]
  IC80, pseudovirus neutralization: 7 ng/mL
[47]
  IC80, pseudovirus neutralization: 7 ng/mL
[48]
  IC80, pseudovirus neutralization: 10 ng/mL
[49]
  IC80, pseudovirus neutralization: 6 ng/mL
